In US20110129935A1, “PROTEIN STABILITY ASSAY USING A FLUORESCENT REPORTER OF PROTEIN FOLDING” (James Cook University, priority 2008, published 2011) one finds Tagg data, which are given here for one molecule.

This data set in a line: Thermal aggregation profiles and Tagg by SDS-PAGE. Format: physicochemical. To be noted: heat treated separately 30 minutes, 42 to 64° C.

Protocol: After incubation, reactions were stopped by transferring the samples to ice for 10 minutes prior to centrifugation at 18,000 r.p.m. for 20 minutes at 4° C. in a Beckman Coulter (Fullerton, Calif., USA) centrifuge (rotor: F12×8.2). The supernatants (3 or 5 μl) were then analyzed by 10% NEXT-GEL SDS-PAGE (Amresco, Solon, Ohio, USA). The gels were illuminated on a transilluminator at 365 nm followed by Coomassie blue staining. Coomassie-stained protein bands corresponding to Ffold were integrated using ImageJ (see the website at rsbweb.nih.gov/ij/) and plotted against the temperature.
To determine the Tagg at which 50% of proteins were aggregated, the thermal aggregation profile data were fit to the following sigmoid function:
Ffold=1−(1/(1+e^(Tagg-T/c))
where Ffold is the normalized fluorescence intensity at temperature T, and c is the Hill slope factor.
Ffold was then determined by SDS-PAGE. For this experiment, equal amounts of the three proteins were mixed to avoid variations in buffer composition and protein concentrations.
Due to the oligomeric quaternary structure of these proteins, experiments were performed separately to avoid the formation of heterogeneous protein complexes.

B1: GK: tetrameric glycerol kinase from E. coli (protein, UniProt P0A6F3 2-502, looked up)
Glycerol kinase: TEKKYIVALDQGTTSSRAVVMDHDANIISVSQREFEQIYPKPGWVEHDPMEIWATQSSTLVEVLAKADISSDQIAAIGITNQRETTIVWEKETGKPIYNAIVWQCRRTAEICEHLKRDGLEDYIRSNTGLVIDPYFSGTKVKWILDHVEGSRERARRGELLFGTVDTWLIWKMTQGRVHVTDYTNASRTMLFNIHTLDWDDKMLEVLDIPREMLPEVRRSSEVYGQTNIGGKGGTRIPISGIAGDQQAALFGQLCVKEGMAKNTYGTGCFMLMNTGEKAVKSENGLLTTIACGPTGEVNYALEGAVFMAGASIQWLRDEMKLINDAYDSEYFATKVQNTNGVYVVPAFTGLGAPYWDPYARGAIFGLTRGVNANHIIRATLESIAYQTRDVLEAMQADSGIRLHALRVDGGAVANNFLMQFQSDILGTRVERPEVREVTALGAAYLAGLAVGFWQNLDELQEKAVIEREFRPGIETTERNYRYAGWKKAVKRAMAWEEHDE
As for B1, the Tagg stood at 50.4±0.3 °C.
